According to article PMC10783497:
Several values for one entry are separate records, joined by “and”; a condition that tells them apart may be missing. Identical values can stand only once.

Target: streptavidin (on Sera-Mag magnetic microparticles) (UniProt P22629)
Experiment: magnetic bead pull-down, FAM fluorescence of eluted aptamer
Settings: 1X PBS, or 2 M NaCl, or 2 M CDHP with 1X PBS; 90 min at room temperature; elution in 250 mM NaCl, 500 mM Tris-HCl pH 8.5

Sequence of streptavidin (on Sera-Mag magnetic microparticles) (P22629 25-183): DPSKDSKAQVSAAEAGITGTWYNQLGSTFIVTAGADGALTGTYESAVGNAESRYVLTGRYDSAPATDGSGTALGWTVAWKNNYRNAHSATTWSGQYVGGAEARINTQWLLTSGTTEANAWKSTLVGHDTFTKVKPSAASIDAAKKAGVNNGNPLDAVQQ

With “ATTGACCGCTGTGTGACGCAACACTCAAT [St-21-1 aptamer]” as the sequence, how does the Kd read?
The Kd was 94.5 nM and 75.4 nM and 70 nM.
